Measured values reported in patent US20150307610A1 (AbbVie / Abbott, published 2015).

T1: E. coli RAGE Construct #7, 6His-(Thr)-[RAGE (235-336)] (human)
T1 construct: N-terminal 6His-(Thr) tag is part of the entry; expressed in E. coli; also called RAGE protein #7
T1 chain: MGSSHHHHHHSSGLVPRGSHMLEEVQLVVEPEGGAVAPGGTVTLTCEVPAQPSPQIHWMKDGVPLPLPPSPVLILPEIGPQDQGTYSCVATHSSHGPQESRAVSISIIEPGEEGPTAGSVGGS


Legend:
[1] = target: T1, E. coli RAGE Construct #7, …; assay: ELISA, antigen coated at 1 ug/ml
Method: (§1) Antigens (purified construct #1-7 proteins) were diluted into Coating Buffer [100 mM NaHCO₃, pH 8.2] to 1 μg/ml, and 100 μl of the resulting solution was then aliquoted into a 96-well Nunc Immuno Plate (Maxi-Sorb Surface, flat bottom, catalog #439454). The plate was sealed with sealing film and incubated at 4° C. overnight. The next day, the plate wells were each washed 3 times with 150 μL PBST buffer [Sigma PBS+0.05% Tween 20]. Then 300 ul of blocking solution (3% NFDM in PBST) was added to each well. The plate was incubated for 2 hours at room temperature and shaking at 100 rpm. After the incubation step, each well was again washed three times with 150 uL PBST. 100 ul of the corresponding antibody to be tested (i.e. 7F9, 11E6, and 4E5) was added at various dilutions made in PBST/0.5% BSA. The plate was then sealed with sealing film and incubated for 2 hours at room temperature and shaking at 100 rpm. Next the antibody solution was drained out of the wells, and each well then washed three times with 200 ul PBST. To each well then 200 ul of a 1:5000 dilution (in PBST/1% NFDM) of conjugated secondary antibody [Donkey anti-mouse HRPO conjugate, Jackson Immuno Research, Catalog #715-035-150] was added. […] Finally, 50 μL of 2M H₂SO₄ was added to each well to stop the reaction and the […] of each well was measured using a microtiter plate reader.

[2] = target: T2, RAGE fragment coated in Fig. 4C (antigen not named on the sheet); assay: direct ELISA: purified E. coli RAGE construct protein coated at 1 ug/mL (construct not named for this panel), mAb titrated, donkey anti-mouse HRP, TMB
T2 construct: Placeholder: the panel cannot be tied to one of m19-m25
Method: as §1

[3] = target: T1, E. coli RAGE Construct #7, …; assay: binding analysis of RAGE mutants of human sRAGE expressed in E. coli

binding result [1]	EC50 (read off the curve) [2] [nM]	binding result [3]	Binder
binds			anti-human RAGE monoclonal antibody 4E5 (murine, hybridoma-derived) (antibody, V domains shown, also called mAb4E5; ML37-4E5) VH: QVQLQQSGAELVRPGTSVKVSCKASGYAFNNYLIEWIKQRPGQGLEWIGVINPGSGGTNHNEKFKVKATLTADKSSSTAYIQLSSLTSDDSAVYFCARSAGTARARFAYWGQGTLVTVSA VL: DIQMTQSPSSLSASLGERVSLTCRASQDIGSSLNWLQQEPDGTIKRLIYATSSLDSGVPKRFSGSRSGSDYSLTISSLESEDFVDYYCLQYASFPFTFGSGTKLEIKR
	~0.03	binds	anti-human RAGE monoclonal antibody 11E6 (murine, hybridoma-derived) (antibody, V domains shown, also called mAb11E6; ML37-11E6) VH: QIQLVQSGPELKKPGETVKISCKASGYTFTNFGMNWVKQAPGKGLKWMGYINTNTGESIYSEEFKGRFAFSLETSASTAYLQINNLKNEDTATYFCARSRMVTAYGMDYWGQGTSVTVSS VL: DIVMTQSQKFMSTSVGDRVSITCKASQNVGTAVAWYQQRPGQSPKLLIFSASNRYTGVPDRFTGSGSGTDFTLTLSNMQPEDLADYFCQQYSSYPLTFGVGTKLELKR
